T1: Rat cKIT D1-5, C-terminal mFc (rat)
T1 construct: also called rat cKIT-mFc
T1 chain: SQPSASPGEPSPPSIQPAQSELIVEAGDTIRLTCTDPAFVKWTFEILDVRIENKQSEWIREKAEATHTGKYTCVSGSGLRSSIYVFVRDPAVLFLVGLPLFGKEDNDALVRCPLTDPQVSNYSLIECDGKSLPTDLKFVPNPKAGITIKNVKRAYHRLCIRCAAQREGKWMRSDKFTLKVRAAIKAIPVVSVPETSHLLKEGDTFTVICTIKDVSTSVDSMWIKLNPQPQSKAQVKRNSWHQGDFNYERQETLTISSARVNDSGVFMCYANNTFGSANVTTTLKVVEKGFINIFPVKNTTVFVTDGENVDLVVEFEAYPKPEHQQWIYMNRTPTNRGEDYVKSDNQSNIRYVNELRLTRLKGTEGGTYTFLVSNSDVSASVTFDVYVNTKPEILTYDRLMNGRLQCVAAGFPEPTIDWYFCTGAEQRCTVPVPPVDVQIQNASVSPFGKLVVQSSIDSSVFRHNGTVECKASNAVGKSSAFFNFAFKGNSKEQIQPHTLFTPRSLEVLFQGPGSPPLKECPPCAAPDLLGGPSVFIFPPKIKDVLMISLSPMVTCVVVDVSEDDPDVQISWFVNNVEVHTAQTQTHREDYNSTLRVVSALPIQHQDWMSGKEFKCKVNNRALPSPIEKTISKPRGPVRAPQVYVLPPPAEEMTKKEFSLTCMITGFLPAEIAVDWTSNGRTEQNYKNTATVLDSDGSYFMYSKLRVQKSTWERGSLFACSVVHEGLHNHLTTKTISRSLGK

T2: Cynomolgus monkey cKIT D1-5 (cynomolgus monkey, UniProt P10721 26-524 (human entry))
T2 construct: also called cyno cKIT ECD
T2 chain: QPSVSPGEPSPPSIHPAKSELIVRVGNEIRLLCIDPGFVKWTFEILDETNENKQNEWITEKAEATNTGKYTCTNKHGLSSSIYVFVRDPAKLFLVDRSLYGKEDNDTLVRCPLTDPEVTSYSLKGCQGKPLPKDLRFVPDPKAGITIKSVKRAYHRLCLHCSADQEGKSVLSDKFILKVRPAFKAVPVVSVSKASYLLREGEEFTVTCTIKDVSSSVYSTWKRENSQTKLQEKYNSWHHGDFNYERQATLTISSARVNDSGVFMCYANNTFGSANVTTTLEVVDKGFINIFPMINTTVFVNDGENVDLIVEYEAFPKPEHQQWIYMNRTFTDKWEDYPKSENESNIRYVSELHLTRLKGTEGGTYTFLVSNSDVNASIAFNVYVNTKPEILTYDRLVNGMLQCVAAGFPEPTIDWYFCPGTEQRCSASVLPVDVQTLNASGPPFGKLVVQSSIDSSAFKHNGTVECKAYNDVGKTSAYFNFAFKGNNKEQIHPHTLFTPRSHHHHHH

T3: Mouse cKIT ECD, C-terminal 6x His (Sino Biological Inc, catalog number 50530-M08H) (mouse, UniProt P05532 25-527)
T3 construct: extracellular domain
T3 sequence: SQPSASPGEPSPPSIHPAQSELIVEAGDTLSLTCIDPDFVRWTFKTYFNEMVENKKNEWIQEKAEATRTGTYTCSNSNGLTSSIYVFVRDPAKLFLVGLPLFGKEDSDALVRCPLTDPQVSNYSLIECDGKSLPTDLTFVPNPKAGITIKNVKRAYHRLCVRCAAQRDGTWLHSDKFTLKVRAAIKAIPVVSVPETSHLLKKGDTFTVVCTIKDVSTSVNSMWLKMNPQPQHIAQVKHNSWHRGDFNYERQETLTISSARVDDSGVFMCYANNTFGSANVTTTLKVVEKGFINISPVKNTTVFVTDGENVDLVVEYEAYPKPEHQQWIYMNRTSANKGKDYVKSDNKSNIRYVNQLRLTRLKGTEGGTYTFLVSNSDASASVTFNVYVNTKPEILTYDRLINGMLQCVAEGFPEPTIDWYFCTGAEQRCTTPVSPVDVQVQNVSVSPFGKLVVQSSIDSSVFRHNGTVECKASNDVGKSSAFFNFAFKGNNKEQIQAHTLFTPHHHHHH


How the values were obtained:
[1] = target: T1, Rat cKIT D1-5, C-terminal mFc; assay: reactivity to rat cKIT (method not given; Example 4 describes SPR)
[2] = target: T4, Human cKIT D1-5 (extracellular domain) (human, UniProt P10721 26-524); assay: SET per the column head (Example 4 describes SPR, Biacore: antibody captured by anti-human Fc, cKIT ECD in solution)
T4 construct: also called human cKIT ECD; full-length cKIT ECD
T4 sequence (P10721 other isoform, or with tags, fused parts or gaps): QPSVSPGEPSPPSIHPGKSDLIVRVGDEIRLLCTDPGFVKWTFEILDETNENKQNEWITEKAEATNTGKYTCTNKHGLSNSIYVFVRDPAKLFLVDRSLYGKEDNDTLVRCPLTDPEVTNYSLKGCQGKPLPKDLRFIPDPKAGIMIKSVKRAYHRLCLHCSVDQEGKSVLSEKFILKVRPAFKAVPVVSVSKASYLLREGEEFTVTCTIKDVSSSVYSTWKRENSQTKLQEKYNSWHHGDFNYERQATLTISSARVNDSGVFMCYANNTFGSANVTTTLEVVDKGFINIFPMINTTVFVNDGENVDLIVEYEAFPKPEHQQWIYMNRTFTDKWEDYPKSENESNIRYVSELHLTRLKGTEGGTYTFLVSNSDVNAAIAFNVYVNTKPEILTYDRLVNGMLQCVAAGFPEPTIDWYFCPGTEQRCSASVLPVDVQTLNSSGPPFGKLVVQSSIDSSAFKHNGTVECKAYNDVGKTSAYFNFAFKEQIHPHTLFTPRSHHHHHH

[3] = target: T2, Cynomolgus monkey cKIT D1-5; assay: as above
[4] = target: T3, Mouse cKIT ECD, C-terminal 6x His (Sino …); assay: reactivity to mouse cKIT (method not given; Example 4 describes SPR)

binding result [1]	Kd [2]	Kd [3]	binding result [4]	Binder
binds	2400 pM	140 pM		Anti-cKIT Ab4 (antibody, human IgG1, lambda, V domains shown, Full-length human IgG1, lambda light chain) VH: QVQLQQSGPGLVKPSQTLSLTCAISGDSVSTNSAAWNWIRQSPSRGLEWLGRIYYRSQWLNDYAVSVKSRITINPDTSKNQFSLQLNSVTPEDTAVYYCARQLTYPYTVYHKALDVWGQGTLVTVSS VL: DIELTQPPSVSVSPGQTASITCSGDNLGDQYVSWYQQKPGQAPVLVIYDDTDRPSGIPERFSGSNSGNTATLTISGTQAEDEADYYCQSTDSKSVVFGGGTKLTVLG
binds	110 pM	180 pM		Anti-cKIT Ab5 (antibody, human IgG1, lambda, V domains shown, Full-length human IgG1, lambda light chain) VH: QVQLVQSGAEVKKPGESLKISCKGSGYSFTNYWIAWVRQMPGKGLEWMGIIYPSNSYTLYSPSFQGQVTISADKSISTAYLQWSSLKASDTAMYYCARVPPGGSISYPAFDHWGQGTLVTVSS VL: DIELTQPPSVSVSPGQTASITCSGDNIGSIYASWYQQKPGQAPVLVIYRDNKRPSGIPERFSGSNSGNTATLTISGTQAEDEADYYCSVTDMEQHSVFGGGTKLTVLG
no binding	94 pM	170 pM	no binding	Anti-cKIT Ab1 (antibody, human IgG1, kappa, V domains shown, Full-length human IgG1, kappa light chain) VH: QVQLVQSGAEVKKPGSSVKVSCKASGGTFSSYAISWVRQAPGQGLEWMGVIFPAEGAPGYAQKFQGRVTITADESTSTAYMELSSLRSEDTAVYYCARGGYISDFDVWGQGTLVTVSS VL: DIQMTQSPSSLSASVGDRVTITCRASQSISNYLAWYQQKPGKAPKLLIYDASSLQSGVPSRFSGSGSGTDFTLTISSLQPEDFATYYCQQYYYESITFGQGTKVEIKR
no binding		52 pM	no binding	Anti-cKIT Ab3 (antibody, human IgG1, kappa, V domains shown, Full-length human IgG1, kappa light chain) VH: QVQLVQSGAEVKKPGSSVKVSCKASGGTFSSYAISWVRQAPGQGLEWMGTIGPFEGQPRYAQKFQGRVTITADESTSTAYMELSSLRSEDTAVYYCARGGYISDFDVWGQGTLVTVSS VL: DIQMTQSPSSLSASVGDRVTITCRASQSISNYLAWYQQKPGKAPKLLIYDASSLQSGVPSRFSGSGSGTDFTLTISSLQPEDFATYYCQQYYYESITFGQGTKVEIKR
no binding	7 pM	10 pM	no binding	Anti-cKIT Ab2 (antibody, human IgG1, kappa, V domains shown, Full-length human IgG1, kappa light chain) VH: QVQLVQSGAEVKKPGSSVKVSCKASGGTFSSHALSWVRQAPGQGLEWMGGIIPSFGTADYAQKFQGRVTITADESTSTAYMELSSLRSEDTAVYYCARGLYDFDYWGQGTLVTVSS VL: DIQMTQSPSSLSASVGDRVTITCRASQDISQDLAWYQQKPGKAPKLLIYDASSLQSGVPSRFSGSGSGTDFTLTISSLQPEDFAVYYCQQYYYLPSTFGQGTKVEIKR
